Assay results published in article PMC8537613.

Biological target: NiV F clamp (Nipah virus (Malaysia strain)) (UniProt Q9IH63)
Assay: SEC

Substance: NiV F clamp (from UniProt Q9IH63 27-483)
- stoichiometry N: 3
